Results on one molecule are retold here after patent publication CN104610448A (WOMEN S HOSPITAL SCHOOL OF MEDICINE ZHEJIANG UNIVERSITY, dated 2015).

Assay [1] has as its target T1, HPV16E6 (pEGFP-C1-HPV16E6质粒转染293T细胞所提蛋白) (HPV16, UniProt P03126 1-158).
T1 construct: not shown: EGFP tag encoded by the pEGFP-C1 vector (N-terminal to the insert)
In words: western blot, 293T lysate, recombinant antibody.

The target of assay [2] is T2, HPV58E6 (pEGFP-C1-HPV58E6质粒转染293T细胞所提蛋白) (HPV58, UniProt P26555 1-149).
T2 construct: Expressed from pEGFP-C1 in 293T cells, so an EGFP fusion (band at 37-55 KD); assayed as denatured cell lysate in western blot; not shown: EGFP tag encoded by the pEGFP-C1 vector (N-terminal to the insert)
T2 sequence (looked up): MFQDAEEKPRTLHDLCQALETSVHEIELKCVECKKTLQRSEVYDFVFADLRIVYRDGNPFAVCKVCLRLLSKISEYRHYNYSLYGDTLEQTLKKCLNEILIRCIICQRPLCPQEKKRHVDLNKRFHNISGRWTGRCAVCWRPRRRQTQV
Description: western blot, 293T lysate, recombinant antibody 1:100. In general terms: Immunoblotting shows a protein as a band on a membrane.

T1 sequence (P03126 whole entry): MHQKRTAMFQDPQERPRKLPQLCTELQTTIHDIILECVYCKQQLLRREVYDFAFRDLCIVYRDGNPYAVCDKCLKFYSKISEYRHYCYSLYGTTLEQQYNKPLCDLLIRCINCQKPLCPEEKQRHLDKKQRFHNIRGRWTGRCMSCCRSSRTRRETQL

B1: HPV58E6特异性兔单克隆抗体 (ZJM1b-9 H2/L1 重组抗体) (antibody, V domains shown)
VH: QSVEESGGRLVTPGTPLTLTCTVSGFSLSSKTISWVRQAPGKGLEWIGAIDSNGMKAYARWAKGRFTISKSSTTVYLKITSPTTEDTATYFCVKPNNLWGPGTLVTVSS
VL: AQVLTQTPSPVSAAVGGTVTINCQSSQSVYNNNALSWYQQKPGQPPKLLIYSASKVATGVPSRFSGSGSGAQFTLTISDLECDDAATYYCQGEFSCSSADCFAFGGGTEVVVKG
notes: Recombinant rabbit monoclonal antibody made in HEK-293-6E cells from pTT5 plasmids; also called ZJM1b-9中的H2/L1; ZJM-1-9H2/L1
Take B1: the binding result in assay [1] was “no binding (tested: 1:100稀释)”; in assay [2] it was “binds”.
